According to patent publication US8598081B2, “Specific delivery of agrochemicals” (priority 2010, dated 2013):

T1: potato lectin (Solanum tuberosum, UniProt Q9S8M0)
T1 construct: purchased Sigma
T1 sequence (Q9S8M0 whole entry, looked up): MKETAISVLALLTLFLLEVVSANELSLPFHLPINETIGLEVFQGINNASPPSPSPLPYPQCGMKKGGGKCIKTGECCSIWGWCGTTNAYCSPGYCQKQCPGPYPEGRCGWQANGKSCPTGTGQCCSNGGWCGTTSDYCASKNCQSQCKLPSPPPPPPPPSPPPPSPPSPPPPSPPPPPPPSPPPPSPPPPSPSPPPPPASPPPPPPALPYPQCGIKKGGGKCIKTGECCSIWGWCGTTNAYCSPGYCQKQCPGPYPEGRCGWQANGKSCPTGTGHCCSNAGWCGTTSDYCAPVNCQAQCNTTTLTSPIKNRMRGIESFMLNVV

B1: VHH 3E6: VHH binding gum arabic, potato lectin and leaf surface; SEQ ID NO:7 by order of the list (protein, listed as Lama glama)
VHH: QVQLQESGGGLVQPGGTLSLSCAASGFNVRWYGMGWFRQAPGKEREGVACISALQETTAYADSVKGRFTLSRDNPKNTLSLQMNNLQPEDTGVYYCATTDCDDSSRMTYTSYLGQGTQVTVSS
modifications: 3E6
B2: Microcapsules containing uvitex OB VHH 3E6: polyurea microcapsules containing the fluorescent tracer Uvitex OB, coupled with (monovalent) VHH 3E6 (conjugate)
VHH: B1 VHH
modifications: left off: small tags and cut ends
notes: polyurea microcapsules containing the fluorescent tracer Uvitex OB, coupled with (monovalent) VHH 3E6

Key:
surface of grass leaves = test: VHH binding to non-fixed leaf discs, grass; conditions: 5 μg/ml, detection with anti-histidine Alexa-488
Method: VHH binding to non-fixed leaf discs of potato (variety Desiree), black nightshade, grass, wheat or azalea was investigated. For comparison, binding of CBM3a to non-fixed leaf discs of potato (variety Desiree) was analyzed in parallel. Leaf discs were prepared by punching a fresh potato leaf with a 5 mm belt hole puncher tool. Leaf discs were put immediately in wells of a 96-well plate containing 200 μl per well 5% MPBS or PBS, and incubated for 30 minutes. Leaf discs were transferred to solutions containing 5 μg/ml VHH antibody fragment, respectively, 5 μg/ml CBM3a in 2% MPBS or PBS and incubated for 60-90 minutes. Unbound VHH or CBM3a proteins were removed by washing three times with 2% MPBS or PBS. Bound VHH or CBM3a proteins were detected with incubation with monoclonal mouse anti-histidine antibodies directly conjugated with Alexa-488 fluorescent dye (Abd Serotec) in 1% MPBS for 1 hour. Unbound antibodies were removed by washing three times with PBS. Leaf discs were put on glass slides, covered with cover slips, and analyzed by microscopy or on a macrozoom microscope system (Nikon) or a SP5 confocal microscope system (Leica).

potato lectin = biological target: T1, potato lectin; test: ELISA-like assay, microcapsules with monovalent or bivalent VHH, potato lectin; assay type: binding; design: Surface area of bound microcapsules: unit not given here; conditions: for Surface area of bound microcapsules: Uvitex microcapsules
Description: Bivalent VHH constructs were produced in bacteria by cloning two VHH sequences in tandem into the pASF22 vector, creating a fusion of two VHH with a 9 glycine-serine linker (GGGGSGGGS (SEQ ID NO:50)) in between the two VHH. pASF22 is an in-house produced pMES derivative. The tags that were used were C-terminal c-Myc (EQKLISEEDLN (SEQ ID NO:51)) and hexahistidine (HHHHHH (SEQ ID NO:52)). A triple alanine linker (AAA) was placed in between the C-terminal end of the VHH and the c-Myc tag and a glycine-alanine-alanine (GAA) linker was used in between the C-terminal end of the c-Myc tag and the hexahistidine tag. The complete sequence C-terminal of the bivalent VHH that was used: AAA-EQKLISEEDLN-GAA-HHHHHH (SEQ ID NO:53). Fresh overnight cultures were produced by starting from colony streaks and inoculation of 2×TY media supplemented with 2% glucose and 100 μg/ml ampicillin. The overnight cultures were used to inoculate fresh cultures 1:100 in 2×TY media with 0.1% glucose and 100 μg/ml ampicillin. After growing at 37° C. in a shaking incubator for 3 hours, IPTG was added to a 1 mM final concentration and recombinant bivalent VHH were produced during an additional incubation for 4 hours. Cells were spun down and resuspended in 1/50th of the original culture volume of PBS and incubated with head-over-head rotation at 4° C. for 30 minutes. Spheroplasts were spun down by centrifugation at 3,000 g and 4° C. for 20 minutes. Supernatants were transferred to fresh tubes and centrifuged again at 3,000 g and 4° C. for 20 minutes. The supernatant was collected and sodium chloride concentration was adjusted to 500 mM and imidazole concentration to 20 mM. Hexahistidine-tagged bivalent VHH were purified from the extracts using HisTrap FF Crude 5 ml IMAC columns (GE Lifesciences) and HiLoad 16/60 Superdex 75 prep grade gel filtration column (GE Lifesciences) on an AKTAxpress system (GE Lifesciences) following standard procedures.
Next, it was investigated if binding of microcapsules to surfaces could be improved by using targeting agents comprising multivalent VHH. A series of parallel couplings was performed with equal amounts of monovalent VHH, bivalent VHH, and unrelated VHH. Success of coupling of VHH and multivalent VHH were analyzed as described in Example 4. An ELISA-like assay was performed using high bind half area microplates (Greiner Bio-One) coated with 5 μg/well potato lectin. Control wells included blank wells or wells coated with unrelated antigens. Plates were washed three times with PBS with 0.05%-TWEEN®-20 and blocked with 5% skimmed milk in PBS for 1 to 2 hours. VHH-coupled Uvitex-containing microcapsules were diluted to appropriate densities in 1% skimmed milk in PBS with 0.05%-TWEEN®-20. Five-fold serial dilution series were prepared and allowed to bind to the surface to compare binding of microcapsules coupled with monovalent or bivalent VHH. Microcapsules were added to the antigen-coated or control wells and allowed to bind for 1 hour. Unbound microcapsules were removed by washing five times with PBS with 0.05%-TWEEN®-20. The bottoms of ELISA plate wells were analyzed for bound microcapsules on a macrozoom microscope system (Nikon). Microcapsules were counted using Volocity image analysis software (Perkin Elmer). A DAPI filter was used to visualize Uvitex microcapsules. […] The surface area of microcapsules with coupled bivalent VHH was 15-fold above the surface area of blank microcapsules applied at this microcapsule density while the surface area of microcapsules with monovalent VHH was only six-fold above the surface area of blank microcapsules applied at this microcapsule density. This difference could be explained by an increase in binding strength due to additional avidity of the bivalent VHH compared to monovalent VHH, it could also be that the use of bivalent VHH increases flexibility and spacer length of the coupled targeting agents on microcapsules, or a combination of both.

azalea leaf discs = test: Leaf disc binding assay with VHH-coupled microcapsules, azalea; conditions: Uvitex microcapsules
Method: A leaf disc binding assay was used to evaluate the interaction of VHH-coupled microcapsules with potato, grass and azalea leaves. ø 8 mm leaf discs were sampled from the leaves of potato pot plants (variety Desiree), from the leaves of greenhouse-grown Lollium perenne and from the leaves of azalea pot plants. Leaf discs were washed three times with PBS. Microcapsules containing lambda cyhalothrin or Uvitex were diluted to appropriate densities in 1% skimmed milk in PBS with 0.05%-TWEEN®-20. Microcapsules were added to the leaf discs and settling of microcapsules and binding of targeting agents allowed for 1 hour. Unbound microcapsules were removed by washing three to five times with PBS with 0.05%-TWEEN®-20.
Leaf discs with Uvitex microcapsules were analyzed for bound microcapsules on a macrozoom microscope system (Nikon). Microcapsules were counted using Volocity image analysis software (Perkin Elmer). A DAPI filter was used to visualize Uvitex microcapsules. Controls for Uvitex microcapsules included blank microcapsules to which no VHH were coupled and microcapsules to which unrelated VHH were coupled.

Molecule	binding to native grass leaf surface (fluorescence microscopy) (surface of grass leaves)	binding to native grass leaf surface (fluorescence microscopy) (surface of grass leaves; listed as 3E6)	surface area of bound microcapsules above the surface area of blank microcapsules (potato lectin; application of 25-fold less microcapsules, potato lectin)	Surface area of bound microcapsules (potato lectin; no coating (first series, with potato lectin rows), surface coverage 100%)	Surface area of bound microcapsules (potato lectin; potato lectin, surface coverage 4%)	Surface area of bound microcapsules (potato lectin; potato lectin, surface coverage 20%)	Surface area of bound microcapsules (potato lectin; potato lectin, surface coverage 100%)	specific binding of microcapsules to azalea leaf discs (azalea leaf discs)
B1	binding to leaf surface and wounded plant tissue	bind specifically	–	–	–	–	–	–
B2	–	–	six-fold	74.536	59.377	307.478	415.773	no specific binding
